# Test results from patent US20180186873A1 (CEPHALON, published 2018).
# Values joined by “and” are separate entries in the source; they are usually repeats but may differ in a detail not shown here. Identical values can stand only once. Like-named read-outs stand apart in the source and are kept apart here.
# T1: guinea pig IL-5 (guinea pig, UniProt O08987 20-135)
# T1 sequence: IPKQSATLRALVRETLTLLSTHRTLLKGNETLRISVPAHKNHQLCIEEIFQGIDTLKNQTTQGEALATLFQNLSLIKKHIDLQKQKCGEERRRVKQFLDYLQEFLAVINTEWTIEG
# T2: mouse IL-5 (mouse, UniProt P04401 21-133)
# T2 sequence (looked up): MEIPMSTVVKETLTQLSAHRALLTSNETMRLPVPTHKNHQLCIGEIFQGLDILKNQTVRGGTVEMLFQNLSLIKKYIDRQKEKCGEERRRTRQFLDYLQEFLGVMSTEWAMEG
# T3: recombinant human IL-3 (human, UniProt P08700 20-152)
# T3 sequence (looked up): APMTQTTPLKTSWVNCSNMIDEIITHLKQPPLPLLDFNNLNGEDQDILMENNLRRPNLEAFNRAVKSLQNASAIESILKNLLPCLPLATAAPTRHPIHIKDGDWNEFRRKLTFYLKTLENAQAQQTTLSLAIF
# T4: recombinant human IL-4 (human, UniProt P05112 25-153)
# T4 sequence (looked up): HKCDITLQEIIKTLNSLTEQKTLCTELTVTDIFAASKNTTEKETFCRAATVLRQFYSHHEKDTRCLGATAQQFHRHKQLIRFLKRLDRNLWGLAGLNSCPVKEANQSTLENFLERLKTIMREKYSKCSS
# T5: recombinant human macrophage colony stimulating factor (human, UniProt P09603 33-190, limits assumed)
# T5 sequence (looked up): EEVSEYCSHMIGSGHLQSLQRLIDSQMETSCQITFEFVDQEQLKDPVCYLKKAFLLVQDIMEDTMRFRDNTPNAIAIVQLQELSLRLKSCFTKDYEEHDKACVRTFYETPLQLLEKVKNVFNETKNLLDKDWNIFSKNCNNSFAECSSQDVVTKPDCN
# T6: rat IL-5 (rat, UniProt Q08125 20-132)
# T6 sequence (looked up): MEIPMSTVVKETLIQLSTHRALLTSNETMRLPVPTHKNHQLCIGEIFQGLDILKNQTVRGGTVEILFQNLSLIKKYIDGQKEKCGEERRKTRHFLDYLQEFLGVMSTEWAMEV
# Tests used:
# recombinant human IL-5 [1] = target: T7, recombinant human IL-5 (human, UniProt P05113 20-134); experiment: cell-based or functional assay
# recombinant human IL-5 [2] = target: T7, recombinant human IL-5
# guinea pig IL-5 = target: T1, guinea pig IL-5; experiment: SPR
# mouse IL-5 = target: T2, mouse IL-5; experiment: SPR
# recombinant human IL-3 = target: T3, recombinant human IL-3; experiment: SPR
# recombinant human IL-4 = target: T4, recombinant human IL-4; experiment: SPR
# recombinant human IL-2 = recombinant human IL-2 (human, UniProt P60568 21-153); experiment: SPR
# Chain of recombinant human IL-2 (P60568 21-153 limits assumed): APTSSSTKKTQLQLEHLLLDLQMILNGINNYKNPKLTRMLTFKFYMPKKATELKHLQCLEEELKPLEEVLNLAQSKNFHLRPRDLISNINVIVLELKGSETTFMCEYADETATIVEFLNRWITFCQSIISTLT
# [3] = target: recombinant human growth hormone (human, UniProt P01241 27-217); experiment: SPR
# Chain of recombinant human growth hormone (P01241 27-217 limits assumed): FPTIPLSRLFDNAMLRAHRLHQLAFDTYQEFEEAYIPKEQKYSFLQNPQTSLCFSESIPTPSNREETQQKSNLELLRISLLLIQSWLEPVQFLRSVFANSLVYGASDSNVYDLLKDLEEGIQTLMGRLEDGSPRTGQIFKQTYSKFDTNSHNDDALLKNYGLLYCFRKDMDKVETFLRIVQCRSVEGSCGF
# [4] = target: recombinant human granulocyte macrophage colony stimulating factor (human, UniProt P04141 18-144); experiment: SPR
# Chain of recombinant human granulocyte macrophage colony stimulating factor (P04141 18-144 limits assumed): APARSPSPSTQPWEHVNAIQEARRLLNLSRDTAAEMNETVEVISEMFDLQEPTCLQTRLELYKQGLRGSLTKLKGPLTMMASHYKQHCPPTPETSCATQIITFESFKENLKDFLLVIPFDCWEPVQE
# [5] = target: T5, recombinant human macrophage colony …; experiment: SPR
# rat IL-5 = target: T6, rat IL-5; experiment: SPR
# recombinant human IL-5 [6] = target: T8, recombinant human IL-5 (human, UniProt P05113 20-134); experiment: SPR
# recombinant human IL-5 [7] = target: T8, recombinant human IL-5; experiment: SPR; remark: listed apart in the source
# recombinant human IL-5 [8] = target: T9, recombinant human IL-5 (human, UniProt P05113 20-134); experiment: SPR, Protein A capture
# recombinant human IL-5 [9] = target: T9, recombinant human IL-5; experiment: SPR, Protein A capture; remark: listed apart in the source
# recombinant human IL-5 [10] = target: T9, recombinant human IL-5; experiment: SPR, Protein A capture; remark: listed apart in the source
# recombinant human IL-5 [11] = target: T9, recombinant human IL-5; experiment: SPR, Protein A capture; remark: listed apart in the source
# recombinant human IL-5 [12] = target: T9, recombinant human IL-5; experiment: SPR, Protein A capture; remark: listed apart in the source
# recombinant human IL-5 [13] = target: T9, recombinant human IL-5; experiment: SPR, Protein A capture; remark: listed apart in the source
# recombinant human IL-5 [14] = target: T9, recombinant human IL-5; experiment: SPR, Protein A capture; remark: listed apart in the source
# recombinant human IL-5 [15] = target: T9, recombinant human IL-5; experiment: SPR, Protein A capture; remark: listed apart in the source
# recombinant human IL-5 [16] = target: T9, recombinant human IL-5; experiment: SPR, Protein A capture; remark: listed apart in the source
# recombinant human IL-5 [17] = target: T9, recombinant human IL-5; experiment: SPR, Protein A capture; remark: listed apart in the source
binder,measurement,setting,value
"antibody 3A5 (antibody, human IgG1, lambda, V domains shown) VH: QVQLQESGPGLVKPSQTLSLTCTVSGGSISNGGYYWSWIRQHPGKGLEWIGYIYYSGSTYYNPSLKSRVSISVDTSKNQFSLKLNSVTAADTAVYYCASLGNWFDYWGQGTLVTVSS VL: SSILTQPPSVSVAPGQTARITCGGNNIGSKNVYWYQQKPGQAPVLVVHDDSDRPSGIPERFSGSNSGNTATLTISRVEVGDEADYSCQVWYSSSDHVVFGGGTKLTVLG",IC50 (pM) in TF1.6G4,recombinant human IL-5 [1],35.1 pM
same,Kd,recombinant human IL-5 [2],0.036 nM
"antibody 3A5.046 (antibody, human IgG4 S228P, lambda) heavy: QVQLQESGPGLVKPSQTLSLTCTVSGGSISNGGYYWSWIRQHPGKGLEWIGYIYYSGSTYYNPSLKSRVTISVDTSKNQFSLKLSSVTAADTAVYYCASLGNWFDYWGQGTLVTVSSASTKGPSVFPLAPCSRSTSESTAALGCLVKDYFPEPVTVSWNSGALTSGVHTFPAVLQSSGLYSLSSVVTVPSSSLGTKTYTCNVDHKPSNTKVDKRVESKYGPPCPPCPAPEFLGGPSVFLFPPKPKDTLYITREPEVTCVVVDVSQEDPEVQFNWYVDGVEVHNAKTKPREEQFNSTYRVVSVLTVLHQDWLNGKEYKCKVSNKGLPSSIEKTISKAKGQPREPQVYTLPPSQEEMTKNQVSLTCLVKGFYPSDIAVEWESNGQPENNYKTTPPVLDSDGSFFLYSRLTVDKSRWQEGNVFSCSVMHEALHNHYTQKSLSLSLG light: SYVLTQPPSVSVAPGQTARITCGGNNIGSKNVYWYQQKPGQAPVLVVHDDSDRPSGIPERFSGSNSGNTATLTISRVEVGDEADYSCQVWDSSSDHVVFGGGTKLTVLGQPKAAPSVTLFPPSSEELQANKATLVCLISDFYPGAVTVAWKADSSPVKAGVETTTPSKQSNNKYAASSYLSLTPEQWKSHRSYSCQVTHEGSTVEKTVAPTECS",binding result,guinea pig IL-5,no binding (tested: 10 µg/ml)
same,binding result,mouse IL-5,no binding (tested: 10 µg/ml)
same,binding result,recombinant human IL-3,no binding (tested: 1 µg/ml)
same,binding result,recombinant human IL-4,no binding (tested: 1 µg/ml)
same,binding result,recombinant human IL-2,no binding (tested: 1 µg/ml)
same,binding result,[3],no binding (tested: 1 µg/ml)
same,binding result,[4],no binding (tested: 1 µg/ml)
same,binding result,[5],no binding (tested: 1 µg/ml)
same,binding result,rat IL-5,no binding (tested: 10 µg/ml)
"3A5.294 (antibody, human IgG4 S228P, lambda, V domains shown) VH: QVQLQESGPGLVKPSQTLSLTCTVSGGSISNGGYYWSWIRQHPGKGLEWIGYIYYSGSTYYNPSLKSRVTISVDTSKNQFSLKLSSVTAADTAVYYCASLGNWFDYWGQGTLVTVSS VL: SYVLTQPPSVSVAPGQTARITCGGNNIGSKNVYWYQQKPGQAPVLVVHDDSDRPSGIPERFSGSNSGNTATLTISRVEVGDEADYSCQVWDSSSDHVAFGGGTKLTVLG",% 3A5.040 kd,recombinant human IL-5 [6],155%
same,Kd,recombinant human IL-5 [7],0.123 nM
"3A5.040 (antibody, human IgG4 S228P, lambda) heavy: not shown light: SYVLTQPPSVSVAPGQTARITCGGNNIGSKNVYWYQQKPGQAPVLVVHDDSDRPSGIPERFSGSNSGNTATLTISRVEVGDEADYSCQVWDSSSDHVVFGGGTKLTVLGQPKAAPSVTLFPPSSEELQANKATLVCLISDFYPGAVTVAWKADSSPVKAGVETTTPSKQSNNKYAASSYLSLTPEQWKSHRSYSCQVTHEGSTVEKTVAPTECS",Kd,recombinant human IL-5 [8],0.175 nM
same,koff,recombinant human IL-5 [8],0.000245 s⁻¹
same,kon,recombinant human IL-5 [8],1.4e+06 M⁻¹ s⁻¹
same,Kd,recombinant human IL-5 [9],0.167 nM and 0.174 nM
same,koff,recombinant human IL-5 [9],0.000237 s⁻¹ and 0.000252 s⁻¹
same,kon,recombinant human IL-5 [9],1.42e+06 M⁻¹ s⁻¹ and 1.45e+06 M⁻¹ s⁻¹
same,Kd,recombinant human IL-5 [10],0.171 nM
same,koff,recombinant human IL-5 [10],0.000252 s⁻¹
same,kon,recombinant human IL-5 [10],1.47e+06 M⁻¹ s⁻¹
same,Kd,recombinant human IL-5 [11],0.163 nM
same,koff,recombinant human IL-5 [11],0.000229 s⁻¹
same,kon,recombinant human IL-5 [11],1.41e+06 M⁻¹ s⁻¹
same,Kd,recombinant human IL-5 [12],0.193 nM and 0.16 nM
same,koff,recombinant human IL-5 [12],0.000261 s⁻¹ and 0.000232 s⁻¹
same,kon,recombinant human IL-5 [12],1.36e+06 M⁻¹ s⁻¹ and 1.45e+06 M⁻¹ s⁻¹
same,Kd,recombinant human IL-5 [13],0.147 nM
same,koff,recombinant human IL-5 [13],0.000213 s⁻¹
same,kon,recombinant human IL-5 [13],1.45e+06 M⁻¹ s⁻¹
same,Kd,recombinant human IL-5 [14],0.18 nM
same,koff,recombinant human IL-5 [14],0.000246 s⁻¹
same,kon,recombinant human IL-5 [14],1.36e+06 M⁻¹ s⁻¹
same,Kd,recombinant human IL-5 [15],0.161 nM and 0.168 nM
same,koff,recombinant human IL-5 [15],0.000232 s⁻¹ and 0.000239 s⁻¹
same,kon,recombinant human IL-5 [15],1.44e+06 M⁻¹ s⁻¹ and 1.43e+06 M⁻¹ s⁻¹
same,Kd,recombinant human IL-5 [16],0.148 nM and 0.193 nM
same,koff,recombinant human IL-5 [16],0.000214 s⁻¹ and 0.000285 s⁻¹
same,kon,recombinant human IL-5 [16],1.44e+06 M⁻¹ s⁻¹ and 1.48e+06 M⁻¹ s⁻¹
same,% 3A5.040 kd,recombinant human IL-5 [17],94%
